From the supplement of paper PMC10567573 come the findings set out here.

± gives the standard deviation.

A short description of this data set: protein stability index of a GFP-peptide fusion (GPS, HEK-293T) (PSI 1-6); higher = more stable.
Where [1] appears, read: treatment: DMSO, c terminus: a fixed tail appended.
Setting [2] is: treatment: MLN4924 1 uM, 8 h, c terminus: a fixed tail appended.
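Note: 24-mer peptide tiles fused after GFP, lentivirally expressed, FACS-sorted into six equal bins by GFP/DsRed ratio, decoded by Illumina sequencing, PSI is the read-weighted mean bin number.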

In the case of DSYCDALTRPEPVHEFCAGRECQP [ADAMTSL2], the protein stability index by setting is: under setting [1], 4.86 ± 0.1; under setting [2], 4.57 ± 0.29.
For the sequence DTCPEVGFFDVLGNDRRREWAALG [ACBD3], the protein stability index worked out at 3.09 ± 0.4 under setting [1] and 3.76 ± 0.14 under setting [2].
Turning to DVKKLEEAGFHTVEAVAYAPKKEL [RAD51], the protein stability index reads like this: under setting [1], 4.73 ± 0.2; under setting [2], 4.91 ± 0.078.
In the case of DVTSLSSQLPDTPNSMVPSPVET [ISL2], the protein stability index by setting is: (treatment: DMSO, c terminus: native) 4.24 ± 0.1; (treatment: MLN4924 1 uM, 8 h, c terminus: native) 4.39 ± 0.34.
As to DYCKGGYHPVKIGDLFNGRYHVIR [SRPK2], the protein stability index came out at 1.99 ± 0.32 under setting [1] and 2.23 ± 0.25 under setting [2].
On to DYLSGVLILASELSRLSVNSVTAG [TSN], for which the protein stability index is 3.54 ± 0.61 under setting [1] and 2.68 ± 0.4 under setting [2].
EADGSTNNGIFQINSRRWCSNLTP [SPACA3]: the protein stability index worked out at 3.43 ± 0.33 under setting [1] and 3.66 ± 0.32 under setting [2].
As for EAKNYLLLPQERPLMQGPRTRPRK [KLHL20], the protein stability index reads like this: under setting [1], 4.25 ± 0.097; under setting [2], 4.17 ± 0.058.
As to EAMFCDFPKINHGILYDEEKYKPF [CFHR2], the protein stability index under setting [1] came to 2.49 ± 0.34 and the protein stability index under setting [2] stood at 2.81 ± 0.26.
Regarding EAVAGAEGREAPALVAAGGAPEDD [DENND6A], the protein stability index is, setting by setting: under setting [1], 5.63 ± 0.16; under setting [2], 5.74 ± 0.12.
Turning to EAYIAKQKRLKSKLLDHDNVKYLK [GDAP1], the protein stability index runs as follows: under setting [1], 3.15 ± 0.32; under setting [2], 3.45 ± 0.55.
The like results for ECGKAFSRSSILVQHQRVHTGEKP [ZNF24] were, in that order, 3.78 ± 0.3 and 3.96 ± 0.14.
Regarding ECLPENLGGYVKIDLATWNFQFLP [PTPN9], the protein stability index is 2.36 ± 0.33 under setting [1] and 2.21 ± 0.38 under setting [2].
Consider EDAVASADFSSMLSEEEKEELKAE [TPD52L1], for which the protein stability index came out at 5.59 ± 0.3 under setting [1] and 5.54 ± 0.63 under setting [2].
Turning to EDGMQCLQLKETLATQEPTDNQVR [DLC1], the protein stability index came to 5.35 ± 0.13 under setting [1] and 5.5 ± 0.092 under setting [2].
Regarding EECKDRERPMYGRDSAYQSITHYR [EMD], the protein stability index is, setting by setting: under setting [1], 4.18 ± 0.43; under setting [2], 4.13 ± 0.14.
As for EEEEGTRSPTLEPPRGRSEAPDSL [SMG5], the protein stability index by setting is: under setting [1], 5.44 ± 0.14; under setting [2], 5.68 ± 0.25.
For EEGILVAVGQDCYTRIWSLHDARL [DCAF4], the protein stability index by setting is: under setting [1], 2.26 ± 0.3; under setting [2], 2.09 ± 0.31.
For EEQSDQSFSSLEPDNEQLMEEVIS [IQUB], in that order: 5.34 ± 0.27 and 5.61 ± 0.18.
Regarding EETKKLANKYLVEDVLLLNFEEMR [KLHL14], the protein stability index by setting is: under setting [1], 3.23 ± 0.23; under setting [2], 3.18 ± 0.27.
Consider EFDSEHNLTSNEGHSLKNLEHRLN [RASAL3], for which the protein stability index is, setting by setting: under setting [1], 4.82 ± 0.49; under setting [2], 4.67 ± 0.49.
For EFEEATGEAGWGAGEGRLGHKRKQ [FOXJ1], in that order: 5.26 ± 0.39 and 5.19 ± 0.5.
Regarding EFQERARKRIRTYLKSCRRMKKNG [NOL4L], the protein stability index is 3.31 ± 0.19 under setting [1] and 3.19 ± 0.23 under setting [2].
For the sequence EGAIVMARGRHVGSSETNLLQHLL [PYCR3], the protein stability index by setting is: under setting [1], 3.25 ± 0.78; under setting [2], 3.18 ± 0.08.
EGARAAGLGELGAALLQLVRRLQA [ESRRA] had a protein stability index under setting [1] of 3.04 ± 0.44 and a protein stability index under setting [2] of 3 ± 0.18.
EGGDESDLSSESSIKKKFLKRKGK [EHMT1]: the protein stability index was 5.54 ± 0.22 under setting [1] and 5.34 ± 0.56 under setting [2].
For EGHSIVGFAMYYFTYDPWIGKLLY [SAT1], in that order: 3.07 ± 0.16 and 3.02 ± 0.99.
With EGKAPIISGVTKAISSPTVSRLTD [TPPP], the protein stability index turned out to be 4.52 ± 0.2 under setting [1] and 4.51 ± 0.36 under setting [2].
EGPALVEIDRSVENTLLNSQMVST [MIA2] registered a protein stability index under setting [1] of 4.54 ± 0.26 and a protein stability index under setting [2] of 4.63 ± 0.22.
As for EGSRKSSRVKGSAPEIDPSSDGSN [KMT2E], the protein stability index was 5.36 ± 0.17 under setting [1] and 5.21 ± 0.18 under setting [2].
Regarding EHKSLESLADGGSASPIKDQPVMA [FANCE], the protein stability index came to 5.43 ± 0.27 under setting [1] and 5.32 ± 0.2 under setting [2].
With EIAQYLLEKGADVNRKSVKGNTAL [FEM1C], the protein stability index by setting is: under setting [1], 2.58 ± 0.35; under setting [2], 2.64 ± 0.3.
EIDTPDKFGRTCLHAAAAGGNVEC [ANKRD44] gave a protein stability index under setting [1] of 4.24 ± 0.16 and a protein stability index under setting [2] of 4.37 ± 0.23.
As to EILGCPLPDPNNYYHRRNEMTTTD [CPXM2], the protein stability index by setting is: under setting [1], 3.24 ± 0.21; under setting [2], 3.54 ± 0.56.
For the sequence EILLHPWFESVLEPGYIDSEIGTS [TRIB1], the protein stability index is 2.44 ± 0.29 under setting [1] and 2.56 ± 0.43 under setting [2].
As to EKKKGKAKKKRLTKADIGTPSNFQ [WASL], the protein stability index by setting is: under setting [1], 4.62 ± 0.099; under setting [2], 4.63 ± 0.062.
The like results for EKKRKEEEERRRREEEERERLQKE [ACBD3] were, in that order, 5.45 ± 0.36 and 5.49 ± 0.25.
Turning to EKLITWLNKELNENQLVRKQDVLG [SASS6], the protein stability index reads like this: under setting [1], 2.12 ± 0.44; under setting [2], 3.1 ± 0.26.
Consider EKSLDQLKSISAEEILTLFCGAPP [PHTF1], for which the protein stability index was determined as 3.02 ± 0.21 under setting [1] and 3.3 ± 0.15 under setting [2].
For EKVNEGKYRSYEEFKADAQLLLHN [ZMYND11], the protein stability index turned out to be 4.1 ± 0.13 under setting [1] and 3.79 ± 0.28 under setting [2].
As to ELDELQAAFEEFDTDRDGYISHRE [CABP4], the protein stability index by setting is: under setting [1], 5.26 ± 0.25; under setting [2], 5.32 ± 0.15.
The sequence ELIFSARVLDGKEAKAVGLISHVL [AUH] returned a protein stability index under setting [1] of 2.58 ± 0.92 and a protein stability index under setting [2] of 2.18 ± 0.25.
On to ELLVAHAYTRYLGDLSGGQVLKKI [HMOX1], for which the protein stability index by setting is: under setting [1], 2.23 ± 0.86; under setting [2], 2.32 ± 0.3.
ELSGAPRCHTVPCAGSTALQEPGE [PXN]: the protein stability index turned out to be 4.9 ± 0.28 under setting [1] and 5.05 ± 0.32 under setting [2].
Consider EMKLQKNFLTQRENTIAGANHTHT [C10orf62], for which the protein stability index reads like this: under setting [1], 3.78 ± 0.44; under setting [2], 3.65 ± 0.4.
The like results for ENLIRERSQQQEPLLCPSYQSYFK [KRT33B] were, in that order, 3.39 ± 0.26 and 3.59 ± 0.59.
Sequence EQKVLSRLVESLSTQIRALTEQQE [RASAL3] yielded a protein stability index under setting [1] of 2.65 ± 0.046 and a protein stability index under setting [2] of 2.76 ± 0.19.
For EQQTMDNLEKQLICPICLEMFTKP [TRIM55], in that order: 3.77 ± 0.38 and 4.14 ± 0.38.
As to ERIQELEDLLAKEKDNSRRMLTDK [LMNB1], the protein stability index by setting is: under setting [1], 4.85 ± 0.29; under setting [2], 4.91 ± 0.34.
Take ERKNAEMYKLSSEQFHEAASKMES [CHCHD6]: the protein stability index stood at 4.83 ± 0.27 under setting [1] and 5.08 ± 0.16 under setting [2].
For the sequence ERLTAPEILLHPWFESVLEPGYID [TRIB1], the protein stability index was determined as 3.26 ± 0.21 under setting [1] and 3.3 ± 0.3 under setting [2].
Sequence ERPQDRDTPVQNKRRRSVTPPEEQ [CDC25B] had a protein stability index under setting [1] of 5.34 ± 0.18 and a protein stability index under setting [2] of 5.32 ± 0.23.
The like results for ERQGNGQQAMSLAILRVIRLVRVF [KCNA3] were, in that order, 2.3 ± 0.13 and 2.56 ± 0.59.
ERSLVLDRLASNVAKRKSSMPQKF [IKZF1]: the protein stability index stood at 3.6 ± 0.23 under setting [1] and 3.84 ± 0.29 under setting [2].
For ESHATLTLAQAHFNNGEYAEAEAL [TTC32], the protein stability index under setting [1] is 5.19 ± 0.2 and the protein stability index under setting [2] was determined as 5.04 ± 0.15.
With ESLPHRLSCLGQQQQEPPLAMGTV [PLAGL1], the protein stability index by setting is: under setting [1], 3.92 ± 0.17; under setting [2], 4.04 ± 0.26.
The like results for ESPSFLSLRKGASLSNGQGSRVLH [NCK2] were, in that order, 3.83 ± 0.27 and 3.92 ± 0.16.
As to ESRACLERIQELEDLLAKEKDNSR [LMNB1], the protein stability index runs as follows: under setting [1], 5.04 ± 0.46; under setting [2], 5.15 ± 0.27.
For ESSDLQMDVMPGEGDLPQMEVGSG [EID1], in that order: 5.42 ± 0.15 and 5.21 ± 0.3.
Regarding ESYTKMCDPGMTAFEPEALGNLVE [CAMK2A], the protein stability index runs as follows: under setting [1], 4.1 ± 0.31; under setting [2], 4.16 ± 0.33.
The like results for ETELALVKESGERKVTDSISKSLE [DLC1] were, in that order, 5.56 ± 0.35 and 5.13 ± 0.44.
Turning to ETELAMRQSVENDIHGLRKVIDDT [KRT18], the protein stability index under setting [1] was 5.17 ± 0.28 and the protein stability index under setting [2] amounted to 5.2 ± 0.18.
The like results for ETFAFQAEIAQLMSLIINTFYSNK [HSP90AB1] were, in that order, 2.84 ± 0.66 and 2.63 ± 0.54.
Turning to ETVSPLPSSMDLLIQDSPDSSTSP [NANOGP8], the protein stability index is 5.45 ± 0.37 under setting [1] and 5.45 ± 0.25 under setting [2].
The like results for EVDFFQRYFIADLPHLQDSFVDKL [INTS4] were, in that order, 2.23 ± 0.43 and 2.65 ± 0.25.
The like results for EVEEVENVQTEFPGEDENPEKASE [TRIM55] were, in that order, 5.57 ± 0.39 and 5.47 ± 0.52.
Take EVFYYSCEYNFVSPSKSFWTRITC [CFHR2]: the protein stability index by setting is: under setting [1], 3.39 ± 0.15; under setting [2], 2.31 ± 0.27.
Sequence EVGMVKCGSRRERCGYRLVRRQRS [ESR2] registered a protein stability index under setting [1] of 3.19 ± 0.35 and a protein stability index under setting [2] of 3.27 ± 0.43.
EVHERNDGIDPFPLLMNRQRVPKV [EFHC1]: the protein stability index under setting [1] came to 3.67 ± 0.31 and the protein stability index under setting [2] amounted to 3.64 ± 0.3.
On to EVKIRDWHLKQSPASPERDYSPYY [KRT13], for which the protein stability index came to 3.34 ± 0.38 under setting [1] and 3.35 ± 0.47 under setting [2].
EVVNRKFGNRIKVLRSRIRFIHLV [POMT2]: the protein stability index reads like this: under setting [1], 2.56 ± 0.22; under setting [2], 2.43 ± 0.43.
Consider EWELLDPTQKALYNDVMQENYETV [ZNF75A], for which the protein stability index turned out to be 4.77 ± 0.086 under setting [1] and 4.98 ± 0.19 under setting [2].
